The source of these data is patent publication US20230364248A1 (Novo Nordisk, published 2023).

A word on the Emax: it is the greatest response seen or fitted, relative to the assay's reference.

This assay addresses full length MIC-1 receptor (hGFRAL) and its full signaling co-receptor hRET51, stably expressed in BHK21 cells (human, UniProt Q6UXV0 19-394; P07949 29-1114). Kind of assay: cell-based or functional assay.

Chain of full length MIC-1 receptor (hGFRAL) and its full signaling co-receptor hRET51, stably expressed in BHK21 cells (Q6UXV0 19-394, chain 1 of 2): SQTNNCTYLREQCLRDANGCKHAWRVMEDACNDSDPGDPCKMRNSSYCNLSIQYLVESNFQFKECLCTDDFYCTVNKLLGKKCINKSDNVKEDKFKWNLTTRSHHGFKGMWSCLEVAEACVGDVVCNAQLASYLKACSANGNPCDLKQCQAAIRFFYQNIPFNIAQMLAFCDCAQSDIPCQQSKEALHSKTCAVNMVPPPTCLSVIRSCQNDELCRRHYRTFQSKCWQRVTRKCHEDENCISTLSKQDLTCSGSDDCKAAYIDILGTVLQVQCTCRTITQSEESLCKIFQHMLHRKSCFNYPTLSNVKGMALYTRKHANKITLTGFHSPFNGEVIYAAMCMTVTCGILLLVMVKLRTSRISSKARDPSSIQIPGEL
Chain of full length MIC-1 receptor (hGFRAL) and its full signaling co-receptor hRET51, stably expressed in BHK21 cells (P07949 29-1114, chain 2 of 2): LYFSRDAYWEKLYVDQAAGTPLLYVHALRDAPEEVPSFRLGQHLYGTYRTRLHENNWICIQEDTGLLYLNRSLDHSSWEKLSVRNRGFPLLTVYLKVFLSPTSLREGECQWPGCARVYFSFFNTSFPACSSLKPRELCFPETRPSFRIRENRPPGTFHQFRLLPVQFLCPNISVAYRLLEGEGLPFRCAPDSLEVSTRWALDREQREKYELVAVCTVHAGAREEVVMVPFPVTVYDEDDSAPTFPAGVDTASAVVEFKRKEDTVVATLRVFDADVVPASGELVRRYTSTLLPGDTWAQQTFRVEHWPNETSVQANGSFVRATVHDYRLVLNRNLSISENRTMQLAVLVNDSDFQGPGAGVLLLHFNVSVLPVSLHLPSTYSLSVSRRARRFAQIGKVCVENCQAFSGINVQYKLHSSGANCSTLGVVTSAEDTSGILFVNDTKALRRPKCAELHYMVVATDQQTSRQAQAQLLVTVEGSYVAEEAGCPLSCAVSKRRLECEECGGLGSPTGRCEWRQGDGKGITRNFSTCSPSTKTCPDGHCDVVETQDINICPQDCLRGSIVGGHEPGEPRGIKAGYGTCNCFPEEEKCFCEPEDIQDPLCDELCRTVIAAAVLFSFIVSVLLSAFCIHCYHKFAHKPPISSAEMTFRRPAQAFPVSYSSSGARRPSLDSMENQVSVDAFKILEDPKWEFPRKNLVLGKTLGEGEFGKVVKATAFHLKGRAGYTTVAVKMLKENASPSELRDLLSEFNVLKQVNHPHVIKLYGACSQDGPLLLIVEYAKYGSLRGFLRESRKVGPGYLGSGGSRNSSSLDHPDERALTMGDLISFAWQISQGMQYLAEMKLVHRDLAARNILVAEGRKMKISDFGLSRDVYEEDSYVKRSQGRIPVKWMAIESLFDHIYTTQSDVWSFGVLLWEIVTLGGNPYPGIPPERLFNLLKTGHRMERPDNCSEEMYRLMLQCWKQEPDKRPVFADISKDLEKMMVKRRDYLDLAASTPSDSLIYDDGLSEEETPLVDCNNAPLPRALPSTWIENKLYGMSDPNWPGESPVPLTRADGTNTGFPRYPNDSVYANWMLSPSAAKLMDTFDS

B1: MIC-1 (SEQ ID NO: 1) (ligand)
chain: ARNGDHCPLGPGRCCRLHTVRASLEDLGWADWVLSPREVQVTMCIGACPSQFRAANMHAQIKTSLHRLKPDTVPAPCCVPASYNPMVLIQKTDTGVSLQTYDDLLAKDCHCI
Molecule B1 registered an Emax of 100%.
